Like-named read-outs stand apart in the source and are kept apart here.
How the values were obtained:
[1] = target: mouse talin1 R1 VBS (H4) peptide, fluorescein labelled (mouse); assay: fluorescence polarisation; fluorescein-labelled VBS peptide at 700 nM, 2-fold serial dilution of protein, triplicate, 25°C; one-site total binding equation
[2] = test system: Vinculin-null mouse embryonic fibroblasts (MEF); assay: Adhesion localization, vinculin/talin intensity (immunostaining, confocal); format: cell-based; settings: full-length vinculin; vs WT vinculin; n = 22 (WT) and 23 (Q19S) cells
Method: Vinculin-null mouse embryonic fibroblasts (MEF) were a kind gift from Prof. Carsten Grashoff (University of Münster) and have been previously described. Cells were maintained at 10–80% confluency in high-glucose Dulbecco’s modified Eagle medium with GlutaMax (10566016, Thermo Fisher Scientific) supplemented with 10% fetal bovine serum (Gibco) in a humidified 37°C, 5% CO2 incubator. For FRAP experiments, Vin-/- MEF cells were adapted to FluoroBrite DMEM medium (Thermo Fisher Scientific) supplemented with 10% fetal bovine serum and 1% GlutaMax for a minimum of 48 hours.
mEmerald-Vinculin-N-21 was a gift from Michael Davidson (Addgene plasmid # 54304; http://n2t.net/addgene:54304; RRID:Addgene_54304). To restore the wildtype human vinculin sequence, L234V backmutation was introduced to all vinculin constructs. Q19S mutation was introduced by GenScript cloning service. All plasmid constructs were authenticated by sequencing. Vin-/- MEF cells were transfected with the Neon transfection system (Thermo Fisher Scientific). […]
For adhesion intensity analysis, immunostained cells were imaged using a Nikon Eclipse Ti2-E inverted microscope equipped with A1R+ laser scanning confocal unit (Nikon) and Nikon CFI Plan Apo IR SR 60x WI (NA 1.27) objective. […] Talin and vinculin intensities in adhesion sites were analyzed using Fiji distribution of ImageJ 1.53t. […]

talin = settings: cited from earlier work
Source text: (Fig 1H). However, how the complexation occurs when the VBS structure is destabilized by force remains unclear. ... || Constant velocity SMD is known to overestimate the unfolding force magnitude, and the measured unfolding forces were approximately one order of magnitude higher when compared to the force required experimentally for vinculin dissociation from talin (above 25 pN). Therefore, to reach unfolding force magnitude within the force range seen in previous studies (<100 pN), we performed microsecond-scale constant force SMD simulations. Using constant force at 70 pN, we achieved limited but noticeable VBS destabilization in the vinculin-bound state within 3 μs. Increasing the fo ... || To assess the thermodynamic parameters of recognition and binding of partially unfolded talin VBS by vinculin, we used umbrella sampling and the weighted histogram analysis method to calculate the vinculin–VBS binding energy profiles. We used two different starting states of VBS: 1) fully α-helical VBS and 2) partially unfolded VBS, stretched by 1.5 nm. This distance was chosen to be consistent with the previously observed contractions upon vinculin binding to R3 (∼1.5–2.5 nm per VBS, depending on force magnitude). The whole process of vinculin–VBS binding was divided into three ... || (+ 2 further places)

Sequence of mouse talin1 R1 VBS (H4) peptide, fluorescein labelled (mouse) (peptide, as listed by the source): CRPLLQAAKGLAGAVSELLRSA

Molecule: VD1 domain of mouse vinculin, Q19S (domain or fragment)
- fold higher affinity than WT mVD1 [1]: 1.75 fold

B1: Q19S vinculin: full-length mEmerald-vinculin with Q19S mutation (protein, UniProt Q64727 1-1066, looked up, variant Q19S)
chain: MPVFHTRTIESILEPVAQSISHLVIMHEEGEVDGKAIPDLTAPVAAVQAAVSNLVRVGKETVQTTEDQILKRDMPPAFIKVENACTKLVQAAQMLQSDPYSVPARDYLIDGSRGILSGTSDLLLTFDEAEVRKIIRVCKGILEYLTVAEVVETMEDLVTYTKNLGPGMTKMAKMIDERQQELTHQEHRVMLVNSMNTVKELLPVLISAMKIFVTTKNSKNQGIEEALKNRNFTVEKMSAEINEIIRVLQLTSWDEDAWASKDTEAMKRALASIDSKLNQAKGWLRDPNASPGDAGEQAIRQILDEAGKVGELCAGKERREILGTCKMLGQMTDQVADLRARGQGASPVAMQKAQQVSQGLDVLTAKVENAARKLEAMTNSKQSIAKKIDAAQNWLADPNGGPEGEEQIRGALAEARKIAELCDDPKERDDILRSLGEIAALTSKLGDLRRQGKGDSPEARALAKQVATALQNLQTKTNRAVANSRPAKAAVHLEGKIEQAQRWIDNPTVDDRGVGQAAIRGLVAEGHRLANVMMGPYRQDLLAKCDRVDQLTAQLADLAARGEGESPQARALASQLQDSLKDLKAQMQEAMTQEVSDVFSDTTTPIKLLAVAATAPPDAPNREEVFDERAANFENHSGRLGATAEKAAAVGTANKSTVEGIQASVKTARELTPQVISAARILLRNPGNQAAYEHFETMKNQWIDNVEKMTGLVDEAIDTKSLLDASEEAIKKDLDKCKVAMANIQPQMLVAGATSIARRANRILLVAKREVENSEDPKFREAVKAASDELSKTISPMVMDAKAVAGNISDPGLQKSFLDSGYRILGAVAKVREAFQPQEPDFPPPPPDLEQLRLTDELAPPKPPLPEGEVPPPRPPPPEEKDEEFPEQKAGEVINQPMMMAARQLHDEARKWSSKGNDIIAAAKRMALLMAEMSRLVRGGSGTKRALIQCAKDIAKASDEVTRLAKEVAKQCTDKRIRTNLLQVCERIPTISTQLKILSTVKATMLGRTNISDEESEQATEMLVHNAQNLMQSVKETVREAEAASIKIRTDAGFTLRWVRKTPWYQ
modifications: full-length mEmerald
notes: full-length mEmerald-vinculin with Q19S mutation
- incorporation into talin-rich focal adhesions [2]: incorporated into talin-rich focal adhesions similarly

B2: vinculin: vinculin in cited magnetic tweezers experiments with talin (protein, UniProt P18206 1-1134, looked up)
Vinculin: MPVFHTRTIESILEPVAQQISHLVIMHEEGEVDGKAIPDLTAPVAAVQAAVSNLVRVGKETVQTTEDQILKRDMPPAFIKVENACTKLVQAAQMLQSDPYSVPARDYLIDGSRGILSGTSDLLLTFDEAEVRKIIRVCKGILEYLTVAEVVETMEDLVTYTKNLGPGMTKMAKMIDERQQELTHQEHRVMLVNSMNTVKELLPVLISAMKIFVTTKNSKNQGIEEALKNRNFTVEKMSAEINEIIRVLQLTSWDEDAWASKDTEAMKRALASIDSKLNQAKGWLRDPSASPGDAGEQAIRQILDEAGKVGELCAGKERREILGTCKMLGQMTDQVADLRARGQGSSPVAMQKAQQVSQGLDVLTAKVENAARKLEAMTNSKQSIAKKIDAAQNWLADPNGGPEGEEQIRGALAEARKIAELCDDPKERDDILRSLGEISALTSKLADLRRQGKGDSPEARALAKQVATALQNLQTKTNRAVANSRPAKAAVHLEGKIEQAQRWIDNPTVDDRGVGQAAIRGLVAEGHRLANVMMGPYRQDLLAKCDRVDQLTAQLADLAARGEGESPQARALASQLQDSLKDLKARMQEAMTQEVSDVFSDTTTPIKLLAVAATAPPDAPNREEVFDERAANFENHSGKLGATAEKAAAVGTANKSTVEGIQASVKTARELTPQVVSAARILLRNPGNQAAYEHFETMKNQWIDNVEKMTGLVDEAIDTKSLLDASEEAIKKDLDKCKVAMANIQPQMLVAGATSIARRANRILLVAKREVENSEDPKFREAVKAASDELSKTISPMVMDAKAVAGNISDPGLQKSFLDSGYRILGAVAKVREAFQPQEPDFPPPPPDLEQLRLTDELAPPKPPLPEGEVPPPRPPPPEEKDEEFPEQKAGEVINQPMMMAARQLHDEARKWSSKPGIPAAEVGIGVVAEADAADAAGFPVPPDMEDDYEPELLLMPSNQPVNQPILAAAQSLHREATKWSSKGNDIIAAAKRMALLMAEMSRLVRGGSGTKRALIQCAKDIAKASDEVTRLAKEVAKQCTDKRIRTNLLQVCERIPTISTQLKILSTVKATMLGRTNISDEESEQATEMLVHNAQNLMQSVKETVREAEAASIKIRTDAGFTLRWVRKTPWYQ
- vinculin–VBS binding above 15 pN (talin; above 15 pN, ref [26]): fast transition
- increase in talin end-to-end distance on vinculin dissociation (talin; above 25 pN, ref [22],[26]): ~3 nm
- contraction per VBS on vinculin binding to R3 (talin; depending on force magnitude, ref [26]): 1.5–2.5 nm
- time of vinculin–VBS binding under lower forces (talin; lower forces, ref [26]): within hundreds of milliseconds
- force for vinculin dissociation from talin (talin; ref [22],[26]): above 25 pN
- reduction in talin end-to-end distance on vinculin binding (talin; talin R3, 9 pN, ref [26]): ~ 1.5 nm
- reduction in talin end-to-end distance on vinculin binding (talin; talin R3, 20 pN, ref [26]): ~ 2.5 nm

Source: paper PMC11333002, “Molecular dynamics simulations reveal how vinculin refolds partially unfolded talin rod helices to stabilize them against mechanical force” (PLOS Computational Biology, 2024)
